Laboratory results as given in patent US20100260668A1 (published 2010).
Values joined by “and” are separate entries in the source; they are usually repeats but may differ in a detail not shown here. Equal values may be shown once.

Legend:
[1] = biological target: T1, NRP1 (Neuropilin-1 Npn-1-His tag) (UniProt O14786-2 22-644); experiment: Direct Bind ELISA, antigen on plate; C-terminal VD
T1 construct: Bought reagent

PlGF (Placental GF) = biological target: T2, PlGF (Placental GF) (UniProt P49763-2 21-149, limits assumed); experiment: Direct Bind ELISA, antigen on plate
T2 construct: Bought reagent
T2 sequence (looked up): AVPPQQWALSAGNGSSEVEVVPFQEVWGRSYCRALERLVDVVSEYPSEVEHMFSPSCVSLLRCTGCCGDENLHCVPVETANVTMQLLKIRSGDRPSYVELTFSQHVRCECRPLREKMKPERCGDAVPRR

[2] = biological target: T3, human DLL4 extracellular domain (human, UniProt Q9NR61 27-529, biotin label in the Notch-1 competition ELISA (sites not given)); experiment: cell-based or functional assay
[3] = biological target: T4, human DLL4 on 293G-human DLL4 cells (human, UniProt Q9NR61 27-685); experiment: FACS: inhibition of Notch1 binding to 293G-human DLL4 cells (competitor Notch1)
T4 construct: whole, on cells; no method paragraph describes this FACS assay

[4] = biological target: T3, human DLL4 extracellular domain; experiment: competition ELISA: biotin-labelled human DLL4 ECD pre-mixed with antibody, then on coated human Notch-1 (competitor Notch-1)
[5] = biological target: T3, human DLL4 extracellular domain; experiment: competition ELISA: 14 nM biotin-labelled human DLL4 ECD pre-mixed with antibody, then on coated human Notch-1 (competitor Notch-1)
biotinylated VEGF = biotinylated VEGF (UniProt P15692-4 27-191, limits assumed, biotinylated); experiment: VEGF capture ELISA, antibody captured by anti-human Fc, biotinylated VEGF
biotinylated VEGF, sequence (P15692 other isoform, or with tags, fused parts or gaps limits assumed): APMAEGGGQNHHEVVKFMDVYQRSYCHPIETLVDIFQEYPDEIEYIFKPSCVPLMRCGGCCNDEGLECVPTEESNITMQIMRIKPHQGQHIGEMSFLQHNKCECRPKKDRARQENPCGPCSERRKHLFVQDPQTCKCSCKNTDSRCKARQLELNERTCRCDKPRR

[6] = biological target: T5, recombinant His-RON partial ECD (R&D Systems #1947-MS) (UniProt Q04912 25-957, limits assumed); experiment: competition ELISA: DVD-Ig pre-incubated with 10 nM His-RON partial ECD, then on captured MSP1 (competitor MSP1)
T5 construct: extracellular domain; also called MSP Receptor ECD-His tag; not shown: His tag

[7] = biological target: T1, NRP1 (Neuropilin-1 Npn-1-His tag); experiment: Direct Bind ELISA, antigen on plate; N-terminal VD
IGF1 (IGF-I) [8] = biological target: T6, IGF1 (IGF-I) (UniProt P05019 49-118); experiment: Direct Bind ELISA, antigen on plate; N-terminal VD; first value of IGF1/IGF2 cell
T6 construct: Bought reagent

IGF2 (IGF-2) [9] = biological target: T7, IGF2 (IGF-2) (UniProt P01344 25-91); experiment: Direct Bind ELISA, antigen on plate; N-terminal VD; second value of IGF1/IGF2 cell
T7 construct: Bought reagent

[10] = biological target: T8, CD40/FC (CD40 ECD/FC chimera-His tag) (UniProt P25942 21-193); experiment: Direct Bind ELISA, C-terminal variable domain
T8 construct: extracellular domain; bought reagent; not shown: IgG FC domain and His tag of the bought chimera
T8 sequence (P25942 21-193, change not shown): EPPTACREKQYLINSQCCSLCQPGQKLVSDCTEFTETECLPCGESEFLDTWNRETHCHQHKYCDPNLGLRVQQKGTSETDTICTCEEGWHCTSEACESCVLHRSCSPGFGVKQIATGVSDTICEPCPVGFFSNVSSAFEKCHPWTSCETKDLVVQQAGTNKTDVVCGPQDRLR

DLL4 (DLL4 ECD/His tag) = biological target: T9, DLL4 (DLL4 ECD/His tag) (UniProt Q9NR61 27-529, limits assumed); experiment: Direct Bind ELISA, antigen on plate
T9 construct: extracellular domain; Bought reagent

IGF1 (IGF-I) [11] = biological target: T6, IGF1 (IGF-I); experiment: Direct Bind ELISA, antigen on plate; C-terminal VD; first value of IGF1/IGF2 cell
IGF2 (IGF-2) [12] = biological target: T7, IGF2 (IGF-2); experiment: Direct Bind ELISA, antigen on plate; C-terminal VD; second value of IGF1/IGF2 cell
[13] = biological target: T1, NRP1 (Neuropilin-1 Npn-1-His tag); experiment: Direct Bind ELISA, antigen on plate

B1: DVD049 (VEGF (seq. 1) and NRP1 (seq. 1) DVD-Ig) (bispecific antibody, IgG1)
VH: EVQLVESGGGLVQPGGSLRLSCAASGYTFTNYGMNWVRQAPGKGLEWVGWINTYTGEPTYAADFKRRFTFSLDTSKSTAYLQMNSLRAEDTAVYYCAKYPHYYGSSHWYFDVWGQGTLVTVSSASTKGPEVQLVESGGGLVQPGGSLRLSCAASGFSFSSEPISWVRQAPGKGLEWVSSITGKNGYTYYADSVKGRFTISADTSKNTAYLQMNSLRAEDTAVYYCARWGKKVYGMDVWGQGTLVTVSS
VL: DIQMTQSPSSLSASVGDRVTITCSASQDISNYLNWYQQKPGKAPKVLIYFTSSLHSGVPSRFSGSGSGTDFTLTISSLQPEDFATYYCQQYSTVPWTFGQGTKVEIKRTVAAPDIQMTQSPSSLSASVGDRVTITCRASQSISSYLAWYQQKPGKAPKLLIYGASSRASGVPSRFSGSGSGTDFTLTISSLQPEDFATYYCQQYMSVPITFGQGTKVEIKR
notes: HC vector V1 (wild-type hIgG1 constant), LC vector V2 (kappa constant); also called DVD049H; DVD049L
EC50 [1]: 0.5 nM

B2: AB047 (anti-PLGF (seq. 1) parent antibody) (antibody, IgG1, V domains shown)
VH: QVQLQQSGAELVKPGASVKISCKASGYTFTDYYINWVKLAPGQGLEWIGWIYPGSGNTKYNEKFKGKATLTIDTSSSTAYMQLSSLTSEDTAVYFCVRDSPFFDYWGQGTLLTVSS
VL: DIVLTQSPDSLAVSLGERVTMNCKSSQSLLNSGMRKSFLAWYQQKPGQSPKLLIYWASTRESGVPDRFTGSGSGTDFTLTISSVQAEDVAVYYCKQSYHLFTFGSGTKLEIKR
notes: HC vector V1 (wild-type hIgG1 constant), LC vector V2 (kappa constant); also called AB047VH; AB047VL
EC50 (PlGF (Placental GF)): 0.2 nM

B3: AB015 (anti-DLL-4 (seq. 1) parent antibody) (antibody, human IgG1, kappa)
heavy: not shown
light: DIQMTQSPSSLSASVGDRVTITCRASQDVSTAVAWYQQKPGKAPKLLIYSASFLYSGVPSRFSGSGSGTDFTLTISSLQPEDFATTYYCQQSYTGTVTFGQGTKVEIKRTVAAPSVFIFPPSDEQLKSGTASVVCLLNNFYPREAKVQWKVDNALQSGNSQESVTEQDSKDSTYSLSSTLTLSKADYEKHKVYACEVTHQGLSSPVTKSFNRGEC
notes: also called AB015VH/AB015VL
Ref. Ab Inhibition of sFlt1 (IC50, nM) [2]: 0.34 nM
IC50 [3]: 2.3 nM
IC50 [4]: 0.37 nM and 0.4 nM
IC50 [5]: 2.47 nM and 2.69 nM and 2.53 nM and 2.74 nM

B4: AB071 (antibody, human IgG1, kappa, L234A L235A, V domains shown)
VH: EVQLVESGGGLVQPGGSLRLSCAASGFTINASWIHWVRQAPGKGLEWVGAIYPYSGYTNYADSVKGRFTISADTSKNTAYLQMNSLRAEDTAVYYCARWGHSTSPWAMDYWGQGTLVTVSS
VL: DIQMTQSPSSLSASVGDRVTITCRASQVIRRSLAWYQQKPGKAPKLLIYAASNLASGVPSRFSGSGSGTDFTLTISSLQPEDFATYYCQQSNTSPLTFGQGTKVEIKR
EC50 (biotinylated VEGF): 0.38 nM

B5: DVD047 (VEGF (seq. 1) N-terminal / RON (seq. 1) C-terminal DVD-Ig) (bispecific antibody, human IgG1, kappa)
heavy: not shown
light: DIQMTQSPSSLSASVGDRVTITCSASQDISNYLNWYQQKPGKAPKVLIYFTSSLHSGVPSRFSGSGSGTDFTLTISSLQPEDFATYYCQQYSTVPWTFGQGTKVEIKRTVAAPDVVMTQSPLSLPVTPGEPASISCRSSQSLLHSNGFNYVDWYLQKPGQSPHLLIYFGSYRASGVPDRFSGSGSGTDFTLKISRVEAEDVGVYYCMQALQTPPWTFGQGTKVEIRRTVAAPSVFIFPPSDEQLKSGTASVVCLLNNFYPREAKVQWKVDNALQSGNSQESVTEQDSKDSTYSLSSTLTLSKADYEKHKVYACEVTHQGLSSPVTKSFNRGEC
notes: also called DVD047H/DVD047L
IC50 [6]: 21.3 nM

B6: DVD050 (NRP1 (seq. 1) and VEGF (seq. 1) DVD-Ig) (bispecific antibody, IgG1)
VH: EVQLVESGGGLVQPGGSLRLSCAASGFSFSSEPISWVRQAPGKGLEWVSSITGKNGYTYYADSVKGRFTISADTSKNTAYLQMNSLRAEDTAVYYCARWGKKVYGMDVWGQGTLVTVSSASTKGPEVQLVESGGGLVQPGGSLRLSCAASGYTFTNYGMNWVRQAPGKGLEWVGWINTYTGEPTYAADFKRRFTFSLDTSKSTAYLQMNSLRAEDTAVYYCAKYPHYYGSSHWYFDVWGQGTLVTVSS
VL: DIQMTQSPSSLSASVGDRVTITCRASQSISSYLAWYQQKPGKAPKLLIYGASSRASGVPSRFSGSGSGTDFTLTISSLQPEDFATYYCQQYMSVPITFGQGTKVEIKRTVAAPDIQMTQSPSSLSASVGDRVTITCSASQDISNYLNWYQQKPGKAPKVLIYFTSSLHSGVPSRFSGSGSGTDFTLTISSLQPEDFATYYCQQYSTVPWTFGQGTKVEIKR
notes: HC vector V1 (wild-type hIgG1 constant), LC vector V2 (kappa constant); also called DVD050H; DVD050L
EC50 [7]: 0.46 nM

B7: DVD042 (IGF1,2 and VEGF (seq. 1) DVD-Ig) (bispecific antibody, IgG1)
VH: QVQLVQSGAEVKKPGASVKVSCKASGYTFTSYDINWVRQATGQGLEWMGWMNPNSGNTGYAQKFQGRVTMTRNTSISTAYMELSSLRSEDTAVYYCARDPYYYYYGMDVWGQGTTVTVSSASTKGPEVQLVESGGGLVQPGGSLRLSCAASGYTFTNYGMNWVRQAPGKGLEWVGWINTYTGEPTYAADFKRRFTFSLDTSKSTAYLQMNSLRAEDTAVYYCAKYPHYYGSSHWYFDVWGQGTLVTVSS
VL: QSVLTQPPSVSAAPGQKVTISCSGSSSNIENNHVSWYQQLPGTAPKLLIYDNNKRPSGIPDRFSGSKSGTSATLGITGLQTGDEADYYCETWDTSLSAGRVFGGGTKLTVLGQPKAAPDIQMTQSPSSLSASVGDRVTITCSASQDISNYLNWYQQKPGKAPKVLIYFTSSLHSGVPSRFSGSGSGTDFTLTISSLQPEDFATYYCQQYSTVPWTFGQGTKVEIKR
notes: HC vector V1 (wild-type hIgG1 constant), LC vector V4 (lambda signal peptide, kappa constant); also called DVD042H; DVD042L
EC50 (IGF1 (IGF-I) [8]): 2.54 nM
EC50 (IGF2 (IGF-2) [9]): 17.6 nM

B8: DVD009 DVD-Ig (bispecific antibody, human IgG1, kappa)
heavy: not shown
light: QIVLSQSPAILSPSPGEKVTMTCRASSSVSYIHWFQQKPGSSPKPWIYATSNLASGVPVRFSGSGSGTSYSLTISRVEAEDAATYYCQQWTSNPPTFGGGTKLEIKRTVAAPDIVMTQSPLSLTVTPGEPASISCRSSQSLLYSNGYNYLDWYLQKPGQSPQVLISLGSNRASGVPDRFSGSGSGTDFTLKISRVEAEDVGVYYCMQARQTPFTFGPGTKVDIRRTVAAPSVFIFPPSDEQLKSGTASVVCLLNNFYPREAKVQWKVDNALQSGNSQESVTEQDSKDSTYSLSSTLTLSKADYEKHKVYACEVTHQGLSSPVTKSFNRGEC
notes: outer AB001 (CD-20), inner AB009 (CD-40); HC/LC linkers short/short; also called DVD009H; DVD009L
binding result [10]: binds

B9: AB015 (anti-DLL-4 (seq. 1) parent antibody) (antibody, IgG1, V domains shown)
VH: EVQLVESGGGLVQPGGSLRLSCAASGFTFTDNWISWVRQAPGKGLEWVGYISPNSGFTYYADSVKGRFTISADTSKNTAYLQMNSLRAEDTAVYYCARDNFGGYFDYWGQGTLVTVSS
VL: DIQMTQSPSSLSASVGDRVTITCRASQDVSTAVAWYQQKPGKAPKLLIYSASFLYSGVPSRFSGSGSGTDFTLTISSLQPEDFATTYYCQQSYTGTVTFGQGTKVEIKR
notes: HC vector V1 (wild-type hIgG1 constant), LC vector V2 (kappa constant); also called AB015VH; AB015VL
EC50 (DLL4 (DLL4 ECD/His tag)): 0.31 nM

B10: DVD041 (VEGF (seq. 1) and IGF1,2 DVD-Ig) (bispecific antibody, IgG1)
VH: EVQLVESGGGLVQPGGSLRLSCAASGYTFTNYGMNWVRQAPGKGLEWVGWINTYTGEPTYAADFKRRFTFSLDTSKSTAYLQMNSLRAEDTAVYYCAKYPHYYGSSHWYFDVWGQGTLVTVSSASTKGPQVQLVQSGAEVKKPGASVKVSCKASGYTFTSYDINWVRQATGQGLEWMGWMNPNSGNTGYAQKFQGRVTMTRNTSISTAYMELSSLRSEDTAVYYCARDPYYYYYGMDVWGQGTTVTVSS
VL: DIQMTQSPSSLSASVGDRVTITCSASQDISNYLNWYQQKPGKAPKVLIYFTSSLHSGVPSRFSGSGSGTDFTLTISSLQPEDFATYYCQQYSTVPWTFGQGTKVEIKRTVAAPQSVLTQPPSVSAAPGQKVTISCSGSSSNIENNHVSWYQQLPGTAPKLLIYDNNKRPSGIPDRFSGSKSGTSATLGITGLQTGDEADYYCETWDTSLSAGRVFGGGTKLTVLG
notes: HC vector V1 (wild-type hIgG1 constant), LC vector V5 (kappa signal peptide, lambda constant); also called DVD041H; DVD041L
EC50 (IGF1 (IGF-I) [11]): 381 nM
EC50 (IGF2 (IGF-2) [12]): 7340 nM

B11: AB016 (anti-NRP1 (seq. 1) parent antibody) (antibody, IgG1, V domains shown)
VH: EVQLVESGGGLVQPGGSLRLSCAASGFSFSSEPISWVRQAPGKGLEWVSSITGKNGYTYYADSVKGRFTISADTSKNTAYLQMNSLRAEDTAVYYCARWGKKVYGMDVWGQGTLVTVSS
VL: DIQMTQSPSSLSASVGDRVTITCRASQSISSYLAWYQQKPGKAPKLLIYGASSRASGVPSRFSGSGSGTDFTLTISSLQPEDFATYYCQQYMSVPITFGQGTKVEIKR
notes: HC vector V1 (wild-type hIgG1 constant), LC vector V2 (kappa constant); also called AB016VH; AB016VL
EC50 [13]: 0.58 nM
